Measured values published in PMC3842988 (Molecular Biology of the Cell, 2013).

B1: Ssa1 (Hsp70) (natural protein)
chain: not shown
B2: Sis1 (type II Hsp40) (natural protein)
chain: MVKETKLYDLLGVSPSANEQELKKGYRKAALKYHPDKPTGDTEKFKEISEAFEILNDPQKREIYDQYGLEAARSGGPSFGPGGPGGAGGAGGFPGGAGGFSGGHAFSNEDAFNIFSQFFGGSSPFGGADDSGFSFSSYPSGGGAGMGGMPGGMGGMHGGMGGMPGGFRSASSSPTYPEEETVQVNLPVSLEDLFVGKKKSFKIGRKGPHGASEKTQIDIQLKPGWKAGTKITYKNQGDYNPQTGRRKTLQFVIQEKSHPNFKRDGDDLIYTLPLSFKESLLGFSKTIQTIDGRTLPLSRVQPVQPSQTSTYPGQGMPTPKNPSQRGNLIVKYKVDYPISLNDAQKRAIDENF

Target: T1, FLAG-Htt103Q-GFP (Huntingtin with 103Q glutamine stretch, lacking the proline-rich region) (UniProt P42858 1-17)
T1 chain: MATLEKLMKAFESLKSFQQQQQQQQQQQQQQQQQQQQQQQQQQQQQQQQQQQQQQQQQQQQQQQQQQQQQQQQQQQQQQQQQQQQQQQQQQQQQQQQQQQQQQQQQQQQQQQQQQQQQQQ
Experiment: co-IP

| Binder | fold change of the co-precipitate, Sti1 elevated against endogenous Sti1 [fold] |
| --- | --- |
| B1 | > 2 |
| B2 | ~4 |
